Laboratory results: US10654915B2, “Antibodies useful in passive influenza immunization” (priority 2011, dated 2020)
Several values for one entry are separate records, joined by “and”; a condition that tells them apart may be missing. Identical values can stand only once. Like-named read-outs stand apart in the source and are kept apart here.

Experiments:
[1] = test system: H1N1 Influenza A/Ca/04/09; test: Comparison to treatment with Tamiflu in infected mice; format: in vivo
[2] = test system: H5N1 A/VN/1204; format: cell-based, influenza A
[3] = test system: H7N3; format: cell-based, influenza A
[4] = test system: H5N1; design: species or system mice; settings: mouse, in vivo
[5] = biological target: H1 HA; format: binding, influenza A; settings: read-out: affinity
[6] = test system: H2N2 A/Mallard/MN/2008; format: cell-based, influenza A
[7] = biological target: H1N1 A/CA/07/09 (H1 Calif/07/09) HA; format: binding, influenza A
[8] = biological target: H5N1 A/VN/1204 (H5 Vietnam/1203/2004) HA; format: binding, influenza A
[9] = biological target: H5 HA; format: binding, influenza A; settings: read-out: affinity
[10] = test system: Philippines 2/82; design: species or system mice; settings: mouse, in vivo
[11] = test system: H5N1; format: cell-based, influenza A
[12] = test system: H1N1; format: cell-based, influenza A
[13] = test system: H1N1: A/CA/04/09; design: species or system mice; settings: mouse, in vivo, ip, 10 mg/kg
[14] = test system: H9N2 Mallard/MN/98; format: cell-based, influenza A
[15] = test system: H1N1; design: species or system mice; settings: mouse, in vivo
[16] = test system: H9N2; format: cell-based, influenza A
[17] = biological target: HA of clades spanning Group 1; test: Standard FortéBio assay (FIG. 3A); format: binding, influenza A; settings: Group 1, FIG. 3A
[18] = biological target: H9 HA; format: binding, influenza A; settings: read-out: affinity
[19] = biological target: H7 HA; format: binding, influenza A; settings: read-out: affinity
[20] = test system: HA1; test: Binding to HA1; design: species or system influenza A
[21] = test system: virus 10 times the LD50 delivered intranasally; test: Prophylaxis in mice, potency (EC50); format: in vivo; settings: single intraperitoneal dose at Day -1, virus at Day 0
[22] = test system: A/Ca/04/09 (H1N1); test: In vivo efficacy, treatment at Day 2; design: species or system mice; settings: IP at Day 2, 10 mg/kg (mixture 10 mg/kg each), FIGS. 6A, 6C
[23] = test system: H1N1 A/CA/07/09; test: MDCK monolayer microneutralization assay; format: cell-based, influenza A
[24] = test system: H5N1: A/Vietnam/1203/04/HPAI; design: species or system mice; settings: mouse, in vivo, ip, 10 mg/kg

B1: MAB53 (antibody, V domains shown)
VH: QVQLVQSGAEVRKPGSSVKVSCKVSGGIIRKYAINWVRQAPGQGLEWMGGIIAIFNTANYAQKFQGRVTITADESTSTVYMELSSLRSEDTALYYCARGMNYYSDYFDYWGQGSLVTVSP
VL: EIVLTQSPGTLSLSPGERATLSCRASQSVRSNNLAWYQHKPGQAPRLLIFGASSRATGIPDRFSGSGSGTDFTLTISRLEPEDFAVYYCQQYGSSPALTFGGGTKVEIK
modifications: CHAIN (1)...(120) MAB53 heavy chain sequence of variable domain; DOMAIN (31)...(35) CDR1; DOMAIN (50)...(66) CDR2; DOMAIN (99)...(110) CDR3; CHAIN (1)...(109) MAB53 light chain sequence; DOMAIN (24)...(35) CDR1; DOMAIN (51)...(57) CDR2; DOMAIN (90)...(98) CDR3
survival ([1]; 10 mice per group, treatment from Day +1, to Day 14): eight of the ten mice survived past Day 8 to Day 14
weight relative to original weight (in words) ([1]; by Day 14): the original weight was exceeded
day at which decline in weight was reversed ([1]; treatment from Day +1): 4 days
EC50 [2]: 0.10 µg/mL
Potency Difference [2]: 40x
low doses that neutralized infection [3]: 1 to 5 µg/mL
survival [4]: 80% and 60% and 50%
Kd [5]: 0.06 nM
EC50 [6]: 1.20 µg/mL
Kd [7]: 0.1 nM
Kd ([8]; read-out: Affinity by FortéBio): 0.5 nM
Kd ([8]; read-out: KD): 0.5 nM
Kd [9]: 6 nM
protection / survival [10]: resulted in death after 10 days
low doses that neutralized infection [11]: 1 to 5 µg/mL
low doses that neutralized infection [12]: 1 to 5 µg/mL
therapeutic effectiveness (survival) [13]: fully effective
EC50 [14]: 0.10 µg/mL
survival [15]: 90% and 50%
low doses that neutralized infection [16]: 1 to 5 µg/mL
affinity across clades (in words) [17]: sub-nM affinity
Kd [18]: 0.03 nM
Kd [19]: 0.07 nM
binding to HA1 [20]: does not bind HA1
EC50 (prophylaxis potency) [21]: 0.4 mg/kg
protection / survival [22]: protective
Potency Difference ([23]; MAB53 vs CR6261 EC50, H1N1 A/CA/07/09): 30x
EC50 ([23]; in vitro neutralization, H1N1 A/CA/07/09): 0.14 µg/mL
therapeutic effectiveness (survival) [24]: fully effective
